The text below walks through data of patent publication US20170081400A1 (CEPHALON, published 2017).

The target of test [1] is T1, human TL1A extracellular domain with N-terminal HIS and FLAG tag (human) (UniProt O95150).
T1 sequence: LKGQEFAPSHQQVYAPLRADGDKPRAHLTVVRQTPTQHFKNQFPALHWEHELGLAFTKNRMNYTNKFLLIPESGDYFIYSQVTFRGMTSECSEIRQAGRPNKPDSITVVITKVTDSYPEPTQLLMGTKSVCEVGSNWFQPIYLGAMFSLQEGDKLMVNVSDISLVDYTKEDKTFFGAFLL
As to the kind of experiment: cell-based or functional assay.

The target in test [2] is T2, human TL1A extracellular domain with N-terminal HIS and FLAG tag (human, UniProt O95150 72-251).
T2 construct: whole entry named. ~70 kDa fraction purified by gel filtration
T2 sequence: T1 sequence
As to the kind of experiment: SPR run 1; purified antibody on Protein A; TL1A 10 ug/mL; timepoint 59. The text has this: (§1) 1.5. Antibody expression and antigen binding as determined by SPR. Using a CM5 sensor chip (GE Healthcare) Protein A (Pierce) was coupled to the chip surface using an amine coupling kit (GE Healthcare). Protein A was coupled on flow cell 1 and 2 (or alternatively 3 and 4) using a BIACORE® T200. […] The amount of supernatant or purified protein (as well as the concentration) injected during the capture stage varied between runs and is specified in the header of the Tables 3-11. At the end of injection of the supernatant or purified antibody the change in response units was measured. This value was reported as Capture Level in Tables 3-11. […] The response units were measured prior to the end of the dissociation phase. […] The sensorgrams were double referenced (flow cell 2 is subtracted from flow cell 1 and a buffer blank). As there were a large number of antibody variants to screen, these were screened across different runs (Tables 3-11). […] A summary of the conditions used in each run is below:
(§2) 2.1. […] In some experiment the antibodies were purified using Protein A chromatography (See 1.4) and purified antibodies were used in BIACORE® (GE Healthcare) experiments.

Test [3] has as its target T2, human TL1A extracellular domain with …. As to the kind of experiment: SPR run 1; purified antibody on Protein A; TL1A 10 ug/mL; timepoint 590.
Description: as §1, §2

In test [4] the target is T3, human TL1A extracellular domain with N-terminal HIS and FLAG tag (human, UniProt O95150 72-251).
T3 sequence: T1 sequence
As to the kind of experiment: cell-based or functional assay.

Test [5] has as its target T3, human TL1A extracellular domain with …. The test is described as follows: SPR Run 8, antibody on Protein A, TL1A 5 ug/mL, timepoint 44.
Description: as §1, §2

For test [6] the target is unchanged. The test is described as follows: SPR Run 8, antibody on Protein A, TL1A 5 ug/mL, timepoint 590.
Description: as §1, §2

Test [7] deals with T4, single-site biotinylated human TL1A (human, UniProt O95150 72-251, single-site biotinylated (site not stated)).
T4 construct: construct used for biotinylation not described
T4 sequence: T1 sequence
The test is described as follows: competition ELISA: antibody dilutions pre-incubated with biotinylated human TL1A (1 µg/ml), added to plate-coated DcR3/Fc; bound TL1A detected with streptavidin-HRP; blocked partner DcR3/Fc [bottom panel]. On the procedure:
1.8. […] DR3/Fc Chimera (R&D Systems) or DcR3/Fc Chimera (R&D Systems) was coated onto a 96-well plate (Maxisorp, Nunc) at a concentration of 2 μg/ml.
Background: An ELISA detects its analyte on a solid surface through an enzyme-linked reagent.

Substitutions are numbered along the chain they refer to.

B1: 320-184 (antibody, human IgG1, name in Kabat numbering, V domains shown)
VH: QVQLVQSGAEVKKPGASVKVSCKASGYTFTSYDINWVRQAPGQGLEWMGWLNPNSGNTGYAQKFQGRVTMTADRSTSTAYMELSSLRSEDTAVYYCAREVPETAAFEYWGQGTLVTVSS
VL: QSVLTQPPSVSGAPGQRVTISCTSSSSDIGAGLGVHWYQQLPGTAPKLLIEGYYNRPSGVPDRFSGSKSGTSASLTITGLAPEDEGDYYCQSYDGTLSALFGGGTKLTVLG
notes: human IgG1, lambda
In the case of B1, in test [1], the Antibody IC50, TL1A induced caspase potency assay in TF-1 cells came out at 0.01 µg/mL and the Fold improvement over 320-179, TL1A induced caspase potency assay in TF-1 cells stood at 3 fold. In addition, the “TL1A Binding Level (Early)” value in test [2] was 141 RU. Further, in test [3], the “TL1A Binding Level (Late)” value stood at 118 RU.

B2: 320-588 (antibody, human IgG1, name in Kabat numbering, V domains shown)
VH: B1 VH with N57Y
VL: B1 VL with G32A, A81L
notes: full-length human IgG1, lambda
Turning to B2, in test [4], the “Antibody IC50, TL1A induced caspase potency assay in TF-1 cells” value (from here on “Antibody IC50”) turned out to be 0.004 µg/mL and the “Fold improvement over 320-179, TL1A induced caspase potency assay in TF-1 cells” value (“Fold improvement” for short) came out at 5 fold. The “TL1A Binding Level (Early)” value in test [5] amounted to 128 RU. Moreover, the “TL1A Binding Level (Late)” value in test [6] was 123 RU.

B3: 320-190 (antibody, human IgG1, name in Kabat numbering, V domains shown)
VH: B1 VH
VL: B1 VL with A81W
notes: human IgG1, lambda
In test [1], B3 came in with an Antibody IC50, TL1A induced caspase potency assay in TF-1 cells of 0.02 µg/mL and a Fold improvement over 320-179, TL1A induced caspase potency assay in TF-1 cells of 2 fold. Besides, the “TL1A Binding Level (Early)” value in test [2] amounted to 136 RU. Also, the “TL1A Binding Level (Late)” value in test [3] came to 113 RU.

B4: 320-187 (antibody, human IgG1, name in Kabat numbering, V domains shown)
VH: B1 VH
VL: B1 VL with A81D
notes: human IgG1, lambda
Consider B4, for which, in test [1], the Antibody IC50, TL1A induced caspase potency assay in TF-1 cells came to 0.02 µg/mL and the Fold improvement over 320-179, TL1A induced caspase potency assay in TF-1 cells amounted to 2 fold. Further, in test [2], the “TL1A Binding Level (Early)” value came to 134 RU. Also, in test [3], the “TL1A Binding Level (Late)” value was 112 RU.

B5: 320-591 (antibody, human IgG1, V domains shown)
VH: B1 VH with N57Y
VL: B1 VL with H36L, A81L
notes: as for B2
B5: in test [4], the “Antibody IC50” value stood at 0.002 µg/mL and the “Fold improvement” value was determined as 10 fold. In addition, in test [5], the “TL1A Binding Level (Early)” value is 132 RU. The “TL1A Binding Level (Late)” value in test [6] is 124 RU.

B6: 320-595 (antibody, human IgG1, name in Kabat numbering, V domains shown)
VH: B1 VH with N57Y
VL: B1 VL with H36L, A81L, Y93W
notes: as for B2
Regarding B6, in test [4], the “Antibody IC50” value was determined as 0.003 µg/mL and the “Fold improvement” value stood at 20 fold. In test [5], the “TL1A Binding Level (Early)” value turned out to be 129 RU. Moreover, the “TL1A Binding Level (Late)” value in test [6] amounted to 128 RU.

B7: 320-188 (antibody, human IgG1, name in Kabat numbering, V domains shown)
VH: B1 VH
VL: B1 VL with A81H
notes: human IgG1, lambda
In test [1], B7 returned an Antibody IC50, TL1A induced caspase potency assay in TF-1 cells of 0.01 µg/mL and a Fold improvement over 320-179, TL1A induced caspase potency assay in TF-1 cells of 4 fold. Further, the “TL1A Binding Level (Early)” value in test [2] stood at 136 RU. Besides, in test [3], the “TL1A Binding Level (Late)” value worked out at 113 RU.

B8: 320-594 (antibody, human IgG1, name in Kabat numbering, V domains shown)
VH: B1 VH with N57Y
VL: B1 VL with L33Q, A81L, Y93W
notes: as for B2
Take B8: in test [4], the “Antibody IC50” value was 0.005 µg/mL and the “Fold improvement” value came to 12 fold. The “TL1A Binding Level (Early)” value in test [5] amounted to 134 RU. Besides, the “TL1A Binding Level (Late)” value in test [6] was 132 RU.

B9: 320-191 (antibody, human IgG1, name in Kabat numbering, V domains shown)
VH: B1 VH
VL: B1 VL with A81Y
notes: human IgG1, lambda
On to B9, for which, in test [1], the Antibody IC50, TL1A induced caspase potency assay in TF-1 cells was 0.02 µg/mL and the Fold improvement over 320-179, TL1A induced caspase potency assay in TF-1 cells was 2 fold. The “TL1A Binding Level (Early)” value in test [2] was found to be 140 RU. Moreover, the “TL1A Binding Level (Late)” value in test [3] came out at 117 RU.

B10: 320-589 (antibody, human IgG1, name in Kabat numbering, V domains shown)
VH: B1 VH with N57Y
VL: B1 VL with L33S, A81L
notes: as for B2
With B10, in test [4], the “Antibody IC50” value stood at 0.02 µg/mL and the “Fold improvement” value was determined as 1 fold. Also, the “TL1A Binding Level (Early)” value in test [5] stood at 120 RU. In addition, the “TL1A Binding Level (Late)” value in test [6] was 109 RU.

B11: 320-592 (antibody, human IgG1, name in Kabat numbering, V domains shown)
VH: B1 VH with N57Y
VL: B1 VL with G32A, A81L, Y93W
notes: as for B2
With B11, in test [4], the “Antibody IC50” value was found to be 0.003 µg/mL and the “Fold improvement” value was found to be 7 fold. The “TL1A Binding Level (Early)” value in test [5] turned out to be 128 RU. In addition, the “TL1A Binding Level (Late)” value in test [6] worked out at 129 RU.

B12: 320-586 (antibody, human IgG1, name in Kabat numbering, V domains shown)
VH: B1 VH
VL: B1 VL with H36L, A81L, Y93W
notes: as for B2
As for B12, in test [4], the “Antibody IC50” value came to 0.002 µg/mL and the “Fold improvement” value worked out at 25 fold. In addition, the “TL1A Binding Level (Early)” value in test [5] came to 108 RU. Moreover, the “TL1A Binding Level (Late)” value in test [6] worked out at 103 RU.

B13: 320-189 (antibody, human IgG1, name in Kabat numbering, V domains shown)
VH: B1 VH
VL: B1 VL with A81K
notes: human IgG1, lambda
In test [1], B13 had an Antibody IC50, TL1A induced caspase potency assay in TF-1 cells of 0.11 µg/mL and a Fold improvement over 320-179, TL1A induced caspase potency assay in TF-1 cells of 0 fold. Moreover, the “TL1A Binding Level (Early)” value in test [2] amounted to 130 RU. For the same molecule, the “TL1A Binding Level (Late)” value in test [3] is 107 RU.

B14: 320-584 (antibody, human IgG1, name in Kabat numbering, V domains shown)
VH: B1 VH
VL: B1 VL with L33S, A81L, Y93W
notes: human IgG1, lambda
As to B14, the “IC50 (read off the curve)” value in test [7] is ~2 µg/mL.

B15: 320-590 (antibody, human IgG1, name in Kabat numbering, V domains shown)
VH: B1 VH with N57Y
VL: B1 VL with L33Q, A81L
notes: as for B2
For B15, in test [4], the “Antibody IC50” value stood at 0.006 µg/mL and the “Fold improvement” value stood at 3 fold. Besides, the “TL1A Binding Level (Early)” value in test [5] amounted to 130 RU. In test [6], the “TL1A Binding Level (Late)” value was determined as 121 RU.

B16: 320-583 (antibody, human IgG1, name in Kabat numbering, V domains shown)
VH: B1 VH
VL: B1 VL with G32A, A81L, Y93W
notes: human IgG1, lambda
Take B16: the “IC50 (read off the curve)” value in test [7] was ~1 µg/mL.

B17: 320-593 (antibody, human IgG1, name in Kabat numbering, V domains shown)
VH: B1 VH with N57Y
VL: B1 VL with L33S, A81L, Y93W
notes: as for B2
As to B17, in test [4], the “Antibody IC50” value is 0.004 µg/mL and the “Fold improvement” value is 15 fold. In test [5], the “TL1A Binding Level (Early)” value was determined as 126 RU. Besides, the “TL1A Binding Level (Late)” value in test [6] was found to be 124 RU.

B18: 320-585 (antibody, human IgG1, name in Kabat numbering, V domains shown)
VH: B1 VH
VL: B1 VL with L33Q, A81L, Y93W
notes: as for B2
Regarding B18, in test [4], the “Antibody IC50” value came to 0.003 µg/mL and the “Fold improvement” value turned out to be 13 fold. Further, in test [5], the “TL1A Binding Level (Early)” value amounted to 116 RU. The “TL1A Binding Level (Late)” value in test [6] stood at 109 RU.

B19: 320-186 (antibody, human IgG1, name in Kabat numbering, V domains shown)
VH: B1 VH
VL: B1 VL with A81Q
notes: human IgG1, lambda
In test [1], B19 returned an Antibody IC50, TL1A induced caspase potency assay in TF-1 cells of 0.03 µg/mL and a Fold improvement over 320-179, TL1A induced caspase potency assay in TF-1 cells of 1 fold. The “TL1A Binding Level (Early)” value in test [2] amounted to 136 RU. For the same molecule, the “TL1A Binding Level (Late)” value in test [3] is 113 RU.

B20: 320-185 (antibody, human IgG1, name in Kabat numbering, V domains shown)
VH: B1 VH
VL: B1 VL with A81S
notes: human IgG1, lambda
In test [1], B20 showed an Antibody IC50, TL1A induced caspase potency assay in TF-1 cells of 0.02 µg/mL and a Fold improvement over 320-179, TL1A induced caspase potency assay in TF-1 cells of 2 fold. In test [2], the “TL1A Binding Level (Early)” value was determined as 137 RU. For the same molecule, the “TL1A Binding Level (Late)” value in test [3] came to 114 RU.
